Assay results taken from article PMC10698284, “SLC3A2 N-glycosylation and Golgi remodeling regulate SLC7A amino acid exchangers and stress mitigation” (The Journal of Biological Chemistry, 2023).
Substitutions are numbered along the chain they refer to.

B1: SLC7A5 (natural protein)
chain: not shown
notes: SLC7A5, human, endogenous in HeLa cells, found by its tryptic peptides; Forms a disulfide-linked heterodimer with SLC3A2; also called SLC7A5 exchanger; source: endogenous, HeLa lysate
B2: SLC7A11 (natural protein, human (endogenous in HeLa), UniProt Q9UPY5 1-501, looked up)
chain: MVRKPVVSTISKGGYLQGNVNGRLPSLGNKEPPGQEKVQLKRKVTLLRGVSIIIGTIIGAGIFISPKGVLQNTGSVGMSLTIWTVCGVLSLFGALSYAELGTTIKKSGGHYTYILEVFGPLPAFVRVWVELLIIRPAATAVISLAFGRYILEPFFIQCEIPELAIKLITAVGITVVMVLNSMSVSWSARIQIFLTFCKLTAILIIIVPGVMQLIKGQTQNFKDAFSGRDSSITRLPLAFYYGMYAYAGWFYLNFVTEEVENPEKTIPLAICISMAIVTIGYVLTNVAYFTTINAEELLLSNAVAVTFSERLLGNFSLAVPIFVALSCFGSMNGGVFAVSRLFYVASREGHLPEILSMIHVRKHTPLPAVIVLHPLTMIMLFSGDLDSLLNFLSFARWLFIGLAVAGLIYLRYKCPDMHRPFKVPLFIPALFSFTCLFMVALSLYSDPFSTGIGFVITLTGVPAYYLFIIWDKKPRWFRIMSEKITRTLQIILEVVPEEDKL
notes: SLC7A11, human, endogenous in HeLa cells, found by its tryptic peptides; Forms a disulfide-linked heterodimer with SLC3A2; source: endogenous, HeLa lysate

Tests used:
FLAG-SLC3A2 N365D = target: T1, FLAG-SLC3A2 N365D (human, UniProt P08195-1 66-630, N365D, N-glycosylated; N-glycosylation site N365 deleted); assay: affinity purification with mass spectrometry; anti-FLAG M2 agarose, 4 h at 4 °C, 1 mg lysate (0.5% NP40, 50 mM HEPES pH 8.0, 100 mM KCl, 1 mM EDTA, 10% glycerol) of HeLa Flp-In T-REx SLC3A2 KO cells with dox-induced FLAG-SLC3A2 WTseq or site variants; on-bead trypsin digest, DDA and SWATH; control: dox-treated SLC3A2 KO cells; in some samples 10 μM fluvastatin or 250 ng/ml swainsonine for the final 24 h; conditions: partners not purified
T1 construct: SLC3A2 (4F2hc, CD98), human, cDNA encoding amino acids 66 to 630 of isoform P08195-1, with N365D; also called N365D site variant; source: HeLa Flp-In T-REx SLC3A2 KO cells, dox-induced from the Flp-In site; in lysate (AP-MS) or on the cell surface, then lysed (Gal3 co-IP); not shown: FLAG, N-terminal, kept
T1 sequence (looked up): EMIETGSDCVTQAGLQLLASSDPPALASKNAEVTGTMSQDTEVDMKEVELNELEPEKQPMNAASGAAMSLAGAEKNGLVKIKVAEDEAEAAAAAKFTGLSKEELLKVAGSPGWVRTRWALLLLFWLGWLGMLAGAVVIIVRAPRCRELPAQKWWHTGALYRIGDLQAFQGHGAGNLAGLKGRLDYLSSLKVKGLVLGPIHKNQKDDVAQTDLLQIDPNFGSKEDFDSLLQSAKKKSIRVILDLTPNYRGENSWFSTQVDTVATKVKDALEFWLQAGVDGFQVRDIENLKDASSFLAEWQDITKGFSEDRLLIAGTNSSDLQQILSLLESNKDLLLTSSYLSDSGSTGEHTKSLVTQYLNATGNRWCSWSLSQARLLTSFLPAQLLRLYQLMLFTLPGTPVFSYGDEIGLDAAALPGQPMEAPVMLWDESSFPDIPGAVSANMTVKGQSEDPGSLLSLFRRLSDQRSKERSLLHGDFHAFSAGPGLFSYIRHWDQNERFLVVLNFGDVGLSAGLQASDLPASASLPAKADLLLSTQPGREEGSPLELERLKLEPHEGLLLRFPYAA

FLAG-SLC3A2 N381D = target: T2, FLAG-SLC3A2 N381D (human, UniProt P08195-1 66-630, N381D, N-glycosylated; N-glycosylation site N381 deleted); assay: as above; conditions: partners not purified
T2 construct: SLC3A2 (4F2hc, CD98), human, cDNA encoding amino acids 66 to 630 of isoform P08195-1, with N381D; also called N381D site variant; source: HeLa Flp-In T-REx SLC3A2 KO cells, dox-induced from the Flp-In site; in lysate (AP-MS) or on the cell surface, then lysed (Gal3 co-IP); not shown: FLAG, N-terminal, kept
T2 sequence (looked up): T1 sequence (looked up) with D300N, N316D

Row | Binder | percent decrease of the interaction against WTseq (FLAG-SLC3A2 N365D) | percent decrease of the interaction against WTseq (FLAG-SLC3A2 N381D)
1 | B1 | 44 ± 14% | 44 ± 14%
2 | B2 | 67 ± 15% | 67 ± 15%
